Target: APP751sw (751 form of APP carrying the Swedish mutation), P05067
Sequence (P05067 whole entry, looked up, change not shown): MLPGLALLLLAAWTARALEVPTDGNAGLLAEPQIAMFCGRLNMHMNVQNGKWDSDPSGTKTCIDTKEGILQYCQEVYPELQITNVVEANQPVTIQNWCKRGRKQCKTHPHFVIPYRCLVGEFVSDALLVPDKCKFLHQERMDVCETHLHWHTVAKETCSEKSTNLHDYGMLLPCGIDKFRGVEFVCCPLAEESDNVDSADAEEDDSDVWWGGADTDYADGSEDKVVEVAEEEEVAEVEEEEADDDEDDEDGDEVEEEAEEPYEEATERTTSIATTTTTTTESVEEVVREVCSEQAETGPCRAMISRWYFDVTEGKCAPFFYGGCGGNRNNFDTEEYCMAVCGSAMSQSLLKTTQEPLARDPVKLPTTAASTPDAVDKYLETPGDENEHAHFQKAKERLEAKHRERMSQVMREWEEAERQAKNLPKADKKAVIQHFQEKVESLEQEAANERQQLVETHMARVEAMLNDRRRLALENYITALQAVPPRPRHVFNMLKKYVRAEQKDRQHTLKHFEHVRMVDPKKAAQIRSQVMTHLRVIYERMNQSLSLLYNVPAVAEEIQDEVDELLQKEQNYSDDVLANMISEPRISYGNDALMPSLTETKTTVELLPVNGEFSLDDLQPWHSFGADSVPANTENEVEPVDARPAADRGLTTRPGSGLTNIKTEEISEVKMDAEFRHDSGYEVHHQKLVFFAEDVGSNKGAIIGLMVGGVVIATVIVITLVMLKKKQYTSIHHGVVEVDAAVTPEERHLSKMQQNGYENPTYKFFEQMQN

B1: BACE2 D110A (protein)
chain: ALEPALASPAGAANFLAMVDNLQGDSGRGYYLEMLIGTPPQKLQILVATGSSNFAVAGTPHSYIDTYFDTERSSTYRSKGFDVTVKYTQGSWTGFVGEDLVTIPKGFNTSFLVNIATIFESENFFLPGIKWNGILGLAYATLAKPSSSLETFFDSLVTQANIPNVFSMQMCGAGLPVAGSGTNGGSLVLGGIEPSLYKGDIWYTPIKEEWYYQIEILKLEIGGQSLNLDCREYNADKAIVDSGTTLLRLPQKVFDAVVEAVARASLIPEFSDGFWTGSQLACWTNSETPWSYFPKISIYLRDENSSRSFRITILPQLYIQPMMGAGLNYECYRFGISPSTNALVIGATVMEGFYVIFDRAQKRVGFAASPCAEIAGAAVSEISGPFSTEDVASNCVPAQSLSEPILWIVSYALMSVCGAILLVLIVLLLLPFRCQRRPRDPEVVNDESSLVRHRWK
β-NTF formation, Q-HP Sepharose fractions of membrane extracts reconstituted with APP751sw for 2 hours at 37° C.: extracts derived from BACE2 D110A transfected cells lost their ability to cleave at the β-secretase site in vitro
